This is an account of results in patent US20220009979A1 (Alexion, published 2022).

For this assay, the target named is T1, Purified C3d (Quidel, San Diego, Calif.) (UniProt P01024 1002-1303, biotinylated via sulfo-NHS-LC linkage).
T1 construct: domain: C3d; also called immobilized C3d
As to the kind of experiment: Octet BLI; biotinylated C3d immobilized on streptavidin biosensors, construct in solution at 2 uM, 600 s association, 1200 s dissociation.

T1 sequence (P01024 1002-1303 limits assumed): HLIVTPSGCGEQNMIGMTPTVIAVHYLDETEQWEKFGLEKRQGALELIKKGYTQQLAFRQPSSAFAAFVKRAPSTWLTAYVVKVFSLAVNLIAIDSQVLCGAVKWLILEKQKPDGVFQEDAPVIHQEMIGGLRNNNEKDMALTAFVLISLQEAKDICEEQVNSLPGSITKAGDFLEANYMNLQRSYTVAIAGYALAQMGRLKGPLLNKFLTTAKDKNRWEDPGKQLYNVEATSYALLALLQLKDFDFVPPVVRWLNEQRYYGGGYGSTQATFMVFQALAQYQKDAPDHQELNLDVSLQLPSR

B1: Compound AP (Fc fusion)
chain: VECPPCPAPPVAGPSVFLFPPKPKDTLMISRTPEVTCVVVDVSQEDPEVQFNWYVDGVEVHNAKTKPREEQFNSTYRVVSVLTVLHQDWLNGKEYKCKVSNKGLPSSIEKTISKAKGQPREPQVYTLPPSQEEMTKNQVSLTCLVKGFYPSDIAVEWESNGQPENNYKTTPPVLDSDGSFFLYSRLTVDKSRWQEGNVFSCSVMHEALHNHYTQKSLSLSLGKGGGGAGGGGAGGGAGGGGSEDCNELPPRRNTEILTGSWSDQTYPEGTQAIYKCRPGYRSLGNVIMVCRKGEWVALNPLRKCQKRPCGHPGDTPFGTFTLTGGNVFEYGVKAVYTCNEGYQLLGEINYRECDTDGWTNDIPICEVVKCLPVTAPENGKIVSSAMEPDREYHFGQAVRFVCNSGYKIEGDEEMHCSDDGFWSKEKPKCVEISCKSPDVINGSPISQKIIYKENERFQYKCNMGYEYSERGDAVCTESGWRPLPSCEEKS
Take B1: the binding result is “no binding (tested: 2 uM)”.

B2: Compound AC (Fc fusion)
chain: ISCGSPPPILNGRISYYSTPIAVGTVIRYSCSGTFRLIGEKSLLCITKDKVDGTWDKPAPKCEYFNKYSSCPEPIVPGGYKIRGSTPYRHGDSVTFACKTNFSMNGQKSVWCQANNMWGPTRLPTCVSVFPGGGGSDAAVECPPCPAPPVAGPSVFLFPPKPKDTLMISRTPEVTCVVVDVSQEDPEVQFNWYVDGVEVHNAKTKPREEQFNSTYRVVSVLTVLHQDWLNGKEYKCKVSNKGLPSSIEKTISKAKGQPREPQVYTLPPSQEEMTKNQVSLTCLVKGFYPSDIAVEWESNGQPENNYKTTPPVLDSDGSFFLYSRLTVDKSRWQEGNVFSCSVMHEALHNHYTQKSLSLSLGKGGGGAGGGGAGGGAGGGGSEDCNELPPRRNTEILTGSWSDQTYPEGTQAIYKCRPGYRSLGNVIMVCRKGEWVALNPLRKCQKRPCGHPGDTPFGTFTLTGGNVFEYGVKAVYTCNEGYQLLGEINYRECDTDGWTNDIPICEVVKCLPVTAPENGKIVSSAMEPDREYHFGQAVRFVCNSGYKIEGDEEMHCSDDGFWSKEKPKCVEISCKSPDVINGSPISQKIIYKENERFQYKCNMGYEYSERGDAVCTESGWRPLPSCEEKS
B2 gave a Kd of 744 nM, a koff of 0.18 s⁻¹ and a kon of 242000 M⁻¹ s⁻¹.

B3: Compound AQ (Fc fusion)
chain: ISCGSPPPILNGRISYYSTPIAVGTVIRYSCSGTFRLIGEKSLLCITKDKVDGTWDKPAPKCEYFNKYSSCPEPIVPGGYKIRGSTPYRHGDSVTFACKTNFSMNGQKSVWCQANNMWGPTRLPTCVSVFPGGGGSDAAVECPPCPAPPVAGPSVFLFPPKPKDTLMISRTPEVTCVVVDVSQEDPEVQFNWYVDGVEVHNAKTKPREEQFNSTYRVVSVLTVLHQDWLNGKEYKCKVSNKGLPSSIEKTISKAKGQPREPQVYTLPPSQEEMTKNQVSLTCLVKGFYPSDIAVEWESNGQPENNYKTTPPVLDSDGSFFLYSRLTVDKSRWQEGNVFSCSVMHEALHNHYTQKSLSLSLGK
Molecule B3 came in with an equilibrium dissociation constant (Kd) of 679 nM, a koff of 0.189 s⁻¹ and a kon of 278000 M⁻¹ s⁻¹.
